In US20220411483A1 (Chugai, published 2022):

Key:
Assay in all cases: SPR (Biacore), FcgR as analyte
[1] = target: T1, FcγRIa extracellular domain with C-terminal His tag (human, UniProt P12314 16-292)
T1 construct: also called FcgRIa

[2] = target: T2, FcγRIIb extracellular domain with C-terminal His tag (human, UniProt P31994 43-217)
T2 construct: extracellular domain; also called FcgRIIb
T2 sequence (looked up): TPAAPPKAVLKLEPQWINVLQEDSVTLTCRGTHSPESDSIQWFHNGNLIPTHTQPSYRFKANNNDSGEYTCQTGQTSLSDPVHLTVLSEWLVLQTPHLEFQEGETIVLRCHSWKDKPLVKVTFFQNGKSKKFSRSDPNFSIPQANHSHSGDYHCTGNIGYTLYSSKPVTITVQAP

[3] = target: T3, FcγRIIa R type extracellular domain with C-terminal His tag (human, UniProt P12318 34-217)
T3 construct: extracellular domain; also called FcgRIIaR
T3 sequence (looked up): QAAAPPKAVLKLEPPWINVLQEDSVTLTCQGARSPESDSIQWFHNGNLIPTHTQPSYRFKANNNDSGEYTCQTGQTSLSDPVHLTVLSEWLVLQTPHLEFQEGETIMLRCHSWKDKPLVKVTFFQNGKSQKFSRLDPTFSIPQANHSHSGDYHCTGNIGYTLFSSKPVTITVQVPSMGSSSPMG

T1 sequence (P12314 16-292): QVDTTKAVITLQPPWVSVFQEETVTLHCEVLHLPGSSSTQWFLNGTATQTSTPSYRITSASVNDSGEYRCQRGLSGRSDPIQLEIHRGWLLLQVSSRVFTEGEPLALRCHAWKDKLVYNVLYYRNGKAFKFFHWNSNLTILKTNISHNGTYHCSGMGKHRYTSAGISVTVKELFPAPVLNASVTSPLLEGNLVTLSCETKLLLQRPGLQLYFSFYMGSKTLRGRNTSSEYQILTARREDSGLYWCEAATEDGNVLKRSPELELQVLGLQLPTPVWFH

B1: IL6R-2B261/IL6R-L (antibody, human IgG1, kappa, name in EU numbering)
heavy: QVQLQESGPGLVKPSETLSLTCAVSGHSISHDHAWSWVRQPPGEGLEWIGFISYSGITNYNPSLQGRVTISRDNSKNTLYLQMNSLRAEDTAVYYCARSLARTTAMDYWGEGTLVTVSSASTKGPSVFPLAPSSKSTSGGTAALGCLVKDYFPEPVTVSWNSGALTSGVHTFPAVLQSSGLYSLSSVVTVPSSSLGTQTYICNVNHKPSNTKVDKKVEPKSCDKTHTCPPCPAPDLLGGDSVFLFPPKPKDTLMISRTPEVTCVVVDVSHEDPEVKFNWYVDGVEVHNAKTKPREEQDNSTYRVVSVLTVLHQDWLNGKEYKCKVSNKALPAPIEKTISKAKGQPREPQVYTLPPSRDELTKNQVSLTCLVKGFYPSDIAVEWESNGQPENNYKTTPPVLDSDGSFFLYSKLTVDKSRWQQGNVFSCSVMHEALHNHYTQESLSLSP
light: not shown
notes: IgG1; alterations on IL6R-B3, EU numbering
[1]
  Kd: 9 nM
[2]
  Kd: 1000 nM

B2: IL6R-BP237/IL6R-L (antibody, human IgG1, kappa, name in EU numbering)
heavy: QVQLQESGPGLVKPSETLSLTCAVSGHSISHDHAWSWVRQPPGEGLEWIGFISYSGITNYNPSLQGRVTISRDNSKNTLYLQMNSLRAEDTAVYYCARSLARTTAMDYWGEGTLVTVSSASTKGPSVFPLAPSSKSTSGGTAALGCLVKDYFPEPVTVSWNSGALTSGVHTFPAVLQSSGLYSLSSVVTVPSSSLGTQTYICNVNHKPSNTKVDKKVEPKSCDKTHTCPPCPAPDYLGDDSVFLFPPKPKDTLMISRTPEVTCVVVDVQDEDGEVKFNWYVDGVEVHNAKTKPREEQDNSTYRVVSVLTVLHQDWLNGKEYKCKVSNAALPKPIEKTISKAKGQPREPQVYTLPPSRDELTKNQVSLTCLVKGFYPSDIAVEWESNGQPENNYKTTPPVLDSDGSFFLYSKLTVDKSRWQQGNVFSCSVMHEALHNHYTQESLSLSP
light: not shown
notes: as for B1
[2]
  Kd: 100 nM

B3: IL6R-BP195/IL6R-L (antibody, human IgG1, kappa, name in EU numbering)
heavy: QVQLQESGPGLVKPSETLSLTCAVSGHSISHDHAWSWVRQPPGEGLEWIGFISYSGITNYNPSLQGRVTISRDNSKNTLYLQMNSLRAEDTAVYYCARSLARTTAMDYWGEGTLVTVSSASTKGPSVFPLAPSSKSTSGGTAALGCLVKDYFPEPVTVSWNSGALTSGVHTFPAVLQSSGLYSLSSVVTVPSSSLGTQTYICNVNHKPSNTKVDKKVEPKSCDKTHTCPPCPAPDYLGDDSVFLFPPKPKDTLMISRTPEVTCVVVDVSDEDGEVKFNWYVDGVEVHNAKTKPREEQDNSTYRVVSVLTVLHQDWLNGKEYKCKVSNAALPKPIEKTISKAKGQPREPQVYTLPPSRDELTKNQVSLTCLVKGFYPSDIAVEWESNGQPENNYKTTPPVLDSDGSFFLYSKLTVDKSRWQQGNVFSCSVMHEALHNHYTQESLSLSP
light: not shown
notes: as for B1
[3]
  Kd: 910 nM
[2]
  Kd: 50 nM

B4: IL6R-BP201/IL6R-L (antibody, human IgG1, kappa, name in EU numbering)
heavy: QVQLQESGPGLVKPSETLSLTCAVSGHSISHDHAWSWVRQPPGEGLEWIGFISYSGITNYNPSLQGRVTISRDNSKNTLYLQMNSLRAEDTAVYYCARSLARTTAMDYWGEGTLVTVSSASTKGPSVFPLAPSSKSTSGGTAALGCLVKDYFPEPVTVSWNSGALTSGVHTFPAVLQSSGLYSLSSVVTVPSSSLGTQTYICNVNHKPSNTKVDKKVEPKSCDKTHTCPPCPAPDLLGDDSVFLFPPKPKDTLMISRTPEVTCVVVDVSHEDGEVKFNWYVDGVEVHNAKTKPREEQYNSTYRVVSVLTVLHQDWLNGKEYKCKVSNKALPRPIEKTISKAKGQPREPQVYTLPPSRDELTKNQVSLTCLVKGFYPSDIAVEWESNGQPENNYKTTPPVLDSDGSFFLYSKLTVDKSRWQQGNVFSCSVMHEALHNHYTQESLSLSP
light: not shown
notes: as for B1
[3]
  Kd: 840 nM
[2]
  Kd: 40 nM

B5: IL6R-BP206/IL6R-L (antibody, human IgG1, kappa, name in EU numbering)
heavy: QVQLQESGPGLVKPSETLSLTCAVSGHSISHDHAWSWVRQPPGEGLEWIGFISYSGITNYNPSLQGRVTISRDNSKNTLYLQMNSLRAEDTAVYYCARSLARTTAMDYWGEGTLVTVSSASTKGPSVFPLAPSSKSTSGGTAALGCLVKDYFPEPVTVSWNSGALTSGVHTFPAVLQSSGLYSLSSVVTVPSSSLGTQTYICNVNHKPSNTKVDKKVEPKSCDKTHTCPPCPAPDLLGGDSVFLFPPKPKDTLMISRTPEVTCVVVDVSHEDGEVKFNWYVDGVEVHNAKTKPREEQYNSTYRVVSVLTVLHQDWLNGKEYKCKVSNKALPRPIEKTISKAKGQPREPQVYTLPPSRDELTKNQVSLTCLVKGFYPSDIAVEWESNGQPENNYKTTPPVLDSDGSFFLYSKLTVDKSRWQQGNVFSCSVMHEALHNHYTQESLSLSP
light: not shown
notes: as for B1
[2]
  Kd: 200 nM

B6: IL6R-BP203/IL6R-L (antibody, human IgG1, kappa, name in EU numbering)
heavy: QVQLQESGPGLVKPSETLSLTCAVSGHSISHDHAWSWVRQPPGEGLEWIGFISYSGITNYNPSLQGRVTISRDNSKNTLYLQMNSLRAEDTAVYYCARSLARTTAMDYWGEGTLVTVSSASTKGPSVFPLAPSSKSTSGGTAALGCLVKDYFPEPVTVSWNSGALTSGVHTFPAVLQSSGLYSLSSVVTVPSSSLGTQTYICNVNHKPSNTKVDKKVEPKSCDKTHTCPPCPAPELLGDDSVFLFPPKPKDTLMISRTPEVTCVVVDVSHEDGEVKFNWYVDGVEVHNAKTKPREEQYNSTYRVVSVLTVLHQDWLNGKEYKCKVSNKALPRPIEKTISKAKGQPREPQVYTLPPSRDELTKNQVSLTCLVKGFYPSDIAVEWESNGQPENNYKTTPPVLDSDGSFFLYSKLTVDKSRWQQGNVFSCSVMHEALHNHYTQESLSLSP
light: not shown
notes: as for B1
[1]
  Kd: 180 nM
[3]
  Kd: 990 nM

B7: IL6R-BP151/IL6R-L (antibody, human IgG1, kappa, name in EU numbering)
heavy: QVQLQESGPGLVKPSETLSLTCAVSGHSISHDHAWSWVRQPPGEGLEWIGFISYSGITNYNPSLQGRVTISRDNSKNTLYLQMNSLRAEDTAVYYCARSLARTTAMDYWGEGTLVTVSSASTKGPSVFPLAPSSKSTSGGTAALGCLVKDYFPEPVTVSWNSGALTSGVHTFPAVLQSSGLYSLSSVVTVPSSSLGTQTYICNVNHKPSNTKVDKKVEPKSCDKTHTCPPCPAPDYLGDDSVFLFPPKPKDTLMISRTPEVTCVVVDVSHEDPEVKFNWYVDGVEVHNAKTKPREEQYNSTYRVVSVLTVLHQDWLNGKEYKCKVSNAALPRPIEKTISKAKGQPREPQVYTLPPSRDELTKNQVSLTCLVKGFYPSDIAVEWESNGQPENNYKTTPPVLDSDGSFFLYSKLTVDKSRWQQGNVFSCSVMHEALHNHYTQESLSLSP
light: not shown
notes: as for B1
[2]
  Kd: 40 nM

B8: IL6R-BP239/IL6R-L (antibody, human IgG1, kappa, name in EU numbering)
heavy: QVQLQESGPGLVKPSETLSLTCAVSGHSISHDHAWSWVRQPPGEGLEWIGFISYSGITNYNPSLQGRVTISRDNSKNTLYLQMNSLRAEDTAVYYCARSLARTTAMDYWGEGTLVTVSSASTKGPSVFPLAPSSKSTSGGTAALGCLVKDYFPEPVTVSWNSGALTSGVHTFPAVLQSSGLYSLSSVVTVPSSSLGTQTYICNVNHKPSNTKVDKKVEPKSCDKTHTCPPCPAPDYLGDDSVFLFPPKPKDTLMISRTPEVTCVVVDVQDEDGEVKFNWYVDGVEVHNAKTKPREEQDNSTYRVVSVLTVLHQDWLNGKEYKCKVSNAALPRPIEKTISKAKGQPREPQVYTLPPSRDELTKNQVSLTCLVKGFYPSDIAVEWESNGQPENNYKTTPPVLDSDGSFFLYSKLTVDKSRWQQGNVFSCSVMHEALHNHYTQESLSLSP
light: not shown
notes: as for B1
[2]
  Kd: 60 nM

B9: IL6R-BP192/IL6R-L (antibody, human IgG1, kappa, name in EU numbering)
heavy: QVQLQESGPGLVKPSETLSLTCAVSGHSISHDHAWSWVRQPPGEGLEWIGFISYSGITNYNPSLQGRVTISRDNSKNTLYLQMNSLRAEDTAVYYCARSLARTTAMDYWGEGTLVTVSSASTKGPSVFPLAPSSKSTSGGTAALGCLVKDYFPEPVTVSWNSGALTSGVHTFPAVLQSSGLYSLSSVVTVPSSSLGTQTYICNVNHKPSNTKVDKKVEPKSCDKTHTCPPCPAPDLLGGDSVFLFPPKPKDTLMISRTPEVTCVVVDVSDEDGEVKFNWYVDGVEVHNAKTKPREEQDNSTYRVVSVLTVLHQDWLNGKEYKCKVSNKALPKPIEKTISKAKGQPREPQVYTLPPSRDELTKNQVSLTCLVKGFYPSDIAVEWESNGQPENNYKTTPPVLDSDGSFFLYSKLTVDKSRWQQGNVFSCSVMHEALHNHYTQESLSLSP
light: not shown
notes: as for B1
[1]
  Kd: 6.6 nM
[3]
  Kd: 2600 nM

B10: IL6R-BP130/IL6R-L (antibody, human IgG1, kappa, name in EU numbering)
heavy: QVQLQESGPGLVKPSETLSLTCAVSGHSISHDHAWSWVRQPPGEGLEWIGFISYSGITNYNPSLQGRVTISRDNSKNTLYLQMNSLRAEDTAVYYCARSLARTTAMDYWGEGTLVTVSSASTKGPSVFPLAPSSKSTSGGTAALGCLVKDYFPEPVTVSWNSGALTSGVHTFPAVLQSSGLYSLSSVVTVPSSSLGTQTYICNVNHKPSNTKVDKKVEPKSCDKTHTCPPCPAPDLLGGDSVFLFPPKPKDTLMISRTPEVTCVVVDVSHEDPEVKFNWYVDGVEVHNAKTKPREEQYNSTYRVVSVLTVLHQDWLNGKEYKCKMSNKALPKPIEKTISKAKGQPREPQVYTLPPSRDELTKNQVSLTCLVKGFYPSDIAVEWESNGQPENNYKTTPPVLDSDGSFFLYSKLTVDKSRWQQGNVFSCSVMHEALHNHYTQESLSLSP
light: not shown
notes: as for B1
[2]
  Kd: 300 nM

B11: IL6R-BP228/IL6R-L (antibody, human IgG1, kappa, name in EU numbering)
heavy: QVQLQESGPGLVKPSETLSLTCAVSGHSISHDHAWSWVRQPPGEGLEWIGFISYSGITNYNPSLQGRVTISRDNSKNTLYLQMNSLRAEDTAVYYCARSLARTTAMDYWGEGTLVTVSSASTKGPSVFPLAPSSKSTSGGTAALGCLVKDYFPEPVTVSWNSGALTSGVHTFPAVLQSSGLYSLSSVVTVPSSSLGTQTYICNVNHKPSNTKVDKKVEPKSCDKTHTCPPCPAPEYLGDDSVFLFPPKPKDTLMISRTPEVTCVVVDVQDEDGEVKFNWYVDGVEVHNAKTKPREEQYNSTYRVVSVLTVLHQDWLNGKEYKCKVSNDALPRPIEKTISKAKGQPREPQVYTLPPSRDELTKNQVSLTCLVKGFYPSDIAVEWESNGQPENNYKTTPPVLDSDGSFFLYSKLTVDKSRWQQGNVFSCSVMHEALHNHYTQESLSLSP
light: not shown
notes: as for B1
[2]
  Kd: 40 nM
